This is an account of results in patent publication US20210284734A1 (SYMPHOGEN A S, published 2021).

First the molecules themselves.
T1: cyno PD1 (limits assumed)
T1 construct: also called cynomolgus PD-1 expressed on CFSE-stained CHO-S cells
T1 receptor: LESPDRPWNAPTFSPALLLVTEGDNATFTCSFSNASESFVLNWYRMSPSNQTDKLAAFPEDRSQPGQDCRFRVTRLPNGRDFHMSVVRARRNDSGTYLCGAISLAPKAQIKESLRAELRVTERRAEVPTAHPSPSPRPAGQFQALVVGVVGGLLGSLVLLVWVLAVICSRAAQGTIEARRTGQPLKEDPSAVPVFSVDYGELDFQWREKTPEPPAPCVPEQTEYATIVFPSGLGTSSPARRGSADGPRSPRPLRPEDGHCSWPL

T2: His-tagged cynomolgus PD-1 ECD (cynomolgus (Macaca fascicularis), UniProt Q15116 25-170 (human entry))
T2 construct: bought from Acro Biosystems; not shown: His tag
T2 chain: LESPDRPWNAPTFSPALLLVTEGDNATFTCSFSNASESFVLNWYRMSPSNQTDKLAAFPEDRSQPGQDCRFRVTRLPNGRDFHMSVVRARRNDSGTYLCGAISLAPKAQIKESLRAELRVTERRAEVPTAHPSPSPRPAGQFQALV

B1: 12819.13367 (antibody, human IgG1, lambda, L234A L235A)
heavy: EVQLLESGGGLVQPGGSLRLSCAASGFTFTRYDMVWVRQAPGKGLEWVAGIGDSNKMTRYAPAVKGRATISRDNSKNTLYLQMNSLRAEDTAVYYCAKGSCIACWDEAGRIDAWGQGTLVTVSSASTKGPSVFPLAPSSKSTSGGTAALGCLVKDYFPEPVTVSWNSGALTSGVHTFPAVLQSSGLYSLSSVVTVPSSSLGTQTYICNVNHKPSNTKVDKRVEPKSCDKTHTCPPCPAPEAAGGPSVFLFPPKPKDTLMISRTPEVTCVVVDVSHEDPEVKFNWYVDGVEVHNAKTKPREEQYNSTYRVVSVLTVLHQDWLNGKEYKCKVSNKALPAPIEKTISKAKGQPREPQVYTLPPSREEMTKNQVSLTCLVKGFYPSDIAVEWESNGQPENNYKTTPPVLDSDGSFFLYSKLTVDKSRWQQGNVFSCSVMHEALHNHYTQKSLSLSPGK
light: ELTQDPAVSVALGQTVRITCSGGGSYDGSSYYGWYQQKPGQAPVTVIYNNNNRPSDIPDRFSGSSSGNTASLTITGAQAEDEADYYCGSYDRPETNSDYVGMFGSGTKVTVLGQPKANPTVTLFPPSSEELQANKATLVCLISDFYPGAVTVAWKADGSPVKAGVETTKPSKQSNNKYAASSYLSLTPEQWKSHRSYSCQVTHEGSTVEKTVAPTECS
B2: 12892.13195 (antibody, human IgG1, lambda, L234A L235A)
heavy: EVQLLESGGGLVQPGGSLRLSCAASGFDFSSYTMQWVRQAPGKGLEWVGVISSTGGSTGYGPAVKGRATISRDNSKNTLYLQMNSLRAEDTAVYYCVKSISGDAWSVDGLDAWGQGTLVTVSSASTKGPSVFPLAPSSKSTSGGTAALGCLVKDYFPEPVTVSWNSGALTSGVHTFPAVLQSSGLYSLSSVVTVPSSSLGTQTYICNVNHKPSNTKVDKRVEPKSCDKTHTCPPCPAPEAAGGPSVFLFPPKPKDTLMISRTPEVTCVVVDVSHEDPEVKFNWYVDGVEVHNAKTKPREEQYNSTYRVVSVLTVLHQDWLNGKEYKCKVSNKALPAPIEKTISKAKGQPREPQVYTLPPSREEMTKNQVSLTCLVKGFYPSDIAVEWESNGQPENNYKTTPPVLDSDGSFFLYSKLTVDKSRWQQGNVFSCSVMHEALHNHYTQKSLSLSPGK
light: ELTQDPAVSVALGQTVRITCSGGGSAYGWYQQKPGQAPVTVIYYNNQRPSGIPDRFSGSSSGNTASLTITGAQAEDEADYYCGSYDSSAVGIFGSGTKVTVLGQPKANPTVTLFPPSSEELQANKATLVCLISDFYPGAVTVAWKADGSPVKAGVETTKPSKQSNNKYAASSYLSLTPEQWKSHRSYSCQVTHEGSTVEKTVAPTECS
notes: same as 12892.15378 but without the N-terminal SY of the light chain
B3: 13112.13208 (antibody, human IgG1, lambda, L234A L235A)
heavy: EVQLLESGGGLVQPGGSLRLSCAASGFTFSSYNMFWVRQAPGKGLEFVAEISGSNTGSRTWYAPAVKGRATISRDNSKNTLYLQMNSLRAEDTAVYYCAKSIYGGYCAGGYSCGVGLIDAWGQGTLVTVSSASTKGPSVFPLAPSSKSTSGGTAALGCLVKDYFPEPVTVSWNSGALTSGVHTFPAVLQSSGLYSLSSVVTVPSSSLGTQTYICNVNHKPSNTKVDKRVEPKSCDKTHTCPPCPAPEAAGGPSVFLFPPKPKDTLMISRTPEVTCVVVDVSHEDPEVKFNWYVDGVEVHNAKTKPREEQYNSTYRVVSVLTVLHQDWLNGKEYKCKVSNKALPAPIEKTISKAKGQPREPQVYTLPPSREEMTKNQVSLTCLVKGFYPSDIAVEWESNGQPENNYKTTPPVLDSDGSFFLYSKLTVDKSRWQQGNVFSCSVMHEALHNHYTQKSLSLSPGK
light: ELTQDPAVSVALGQTVRITCSGGSSDYYGWFQQKPGQAPVTVIYYNNKRPSDIPDRFSGSSSGNTASLTITGAQAEDEADYYCGNADSSVGVFGSGTKVTVLGQPKANPTVTLFPPSSEELQANKATLVCLISDFYPGAVTVAWKADGSPVKAGVETTKPSKQSNNKYAASSYLSLTPEQWKSHRSYSCQVTHEGSTVEKTVAPTECS
notes: same as 13112.15380 but without the N-terminal SY of the light chain
B4: 12760.15375 (antibody, human IgG1, lambda, L234A L235A, V domains shown)
VH: EVQLLESGGGLVQPGGSLRLSCAASGFTFSTFNMVWVRQAPGKGLEYVAEISSDGSFTWYATAVKGRATISRDNSKNTVYLQMNSLRAEDTAVYYCAKSDCSSSYYGYSCIGIIDAWGQGTLVTVSS
VL: SYELTQDPAVSVALGQTVRITCSGGISDDGSYYYGWFQQKPGQAPVTVIYINDRRPSNIPDRFSGSSSGNTASLTITGAQAEDEADYYCGSYDSSAGVGIFGSGTKVTVLG
notes: humanized, IgG1 LALA, lambda
B5: 12865.15377 (antibody, human IgG1, lambda, L234A L235A, V domains shown)
VH: EVQLLESGGGLVQPGGSLRLSCAASGFDFSDHGMQWVRQAPGKGLEYVGVIDTTGRYTYYAPAVKGRATISRDNSKNTLYLQMNSLRAEDTAVYYCAKTTCVGGYLCNTVGSIDAWGQGTLVTVSS
VL: SYELTQDPAVSVALGQTVRITCSGGGSSSYYGWYQQKPGQAPVTVIYDDTNRPSGIPDRFSGSSSGNTASLTITGAQAEDEADYYCGGYEGSSHAGIFGSGTKVTVLG
notes: humanized, IgG1 LALA, lambda
B6: 12748.15381 (antibody, human IgG1, lambda, L234A L235A, V domains shown)
VH: EVQLLESGGGLVQPGGSLRLSCAASGFTFSDYAMNWVRQAPGKGLEWVAGIGNDGSYTNYGAAVKGRATISRDNSKNTLYLQMNSLRAEDTAVYYCASDIRSRNDCSYFLGGCSSGFIDVWGQGTLVTVSS
VL: SYELTQDPAVSVALGQTVRITCSGGSSYSYGWFQQKPGQAPVTVIYESNNRPSDIPDRFSGSSSGNTASLTITGAQAEDEADYYCGNADSSSGIFGSGTKVTVLG
notes: humanized, IgG1 LALA, lambda
B7: 12748.16124 (antibody, human IgG1, lambda, L234A L235A, V domains shown)
VH: B6 VH
VL: SYELTQPPSVSVSPGQTARITCSGGSSYSYGWFQQKPGQAPVTVIYESNNRPSDIPERFSGSSSGTTVTLTISGVQAEDEADYYCGNADSSSGIFGSGTKVTVLG
notes: alternative germline VL variant of 12748.15381; IgG1 LALA, lambda
B8: 12777.15382 (antibody, human IgG1, lambda, L234A L235A)
heavy: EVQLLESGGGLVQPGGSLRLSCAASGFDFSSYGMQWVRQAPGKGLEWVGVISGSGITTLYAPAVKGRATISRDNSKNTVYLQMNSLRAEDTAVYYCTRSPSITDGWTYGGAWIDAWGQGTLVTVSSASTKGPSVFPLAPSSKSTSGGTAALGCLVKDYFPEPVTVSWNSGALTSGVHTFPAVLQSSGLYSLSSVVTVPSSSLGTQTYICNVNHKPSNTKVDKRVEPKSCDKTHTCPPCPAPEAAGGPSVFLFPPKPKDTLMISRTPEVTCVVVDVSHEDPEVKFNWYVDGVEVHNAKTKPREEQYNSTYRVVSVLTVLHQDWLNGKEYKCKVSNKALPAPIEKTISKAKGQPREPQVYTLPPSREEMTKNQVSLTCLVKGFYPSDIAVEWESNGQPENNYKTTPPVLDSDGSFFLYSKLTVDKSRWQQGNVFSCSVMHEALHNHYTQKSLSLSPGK
light: SYELTQDPAVSVALGQTVRITCSGGDGSYGWFQQKPGQAPVTVIYDNDNRPSDIPDRFSGSSSGNTASLTITGAQAEDEADYYCGNADLSGGIFGSGTKVTVLGQPKANPTVTLFPPSSEELQANKATLVCLISDFYPGAVTVAWKADGSPVKAGVETTKPSKQSNNKYAASSYLSLTPEQWKSHRSYSCQVTHEGSTVEKTVAPTECS
notes: humanized, IgG1 LALA, lambda
B9: 13112.15380 (antibody, human IgG1, lambda, L234A L235A)
heavy: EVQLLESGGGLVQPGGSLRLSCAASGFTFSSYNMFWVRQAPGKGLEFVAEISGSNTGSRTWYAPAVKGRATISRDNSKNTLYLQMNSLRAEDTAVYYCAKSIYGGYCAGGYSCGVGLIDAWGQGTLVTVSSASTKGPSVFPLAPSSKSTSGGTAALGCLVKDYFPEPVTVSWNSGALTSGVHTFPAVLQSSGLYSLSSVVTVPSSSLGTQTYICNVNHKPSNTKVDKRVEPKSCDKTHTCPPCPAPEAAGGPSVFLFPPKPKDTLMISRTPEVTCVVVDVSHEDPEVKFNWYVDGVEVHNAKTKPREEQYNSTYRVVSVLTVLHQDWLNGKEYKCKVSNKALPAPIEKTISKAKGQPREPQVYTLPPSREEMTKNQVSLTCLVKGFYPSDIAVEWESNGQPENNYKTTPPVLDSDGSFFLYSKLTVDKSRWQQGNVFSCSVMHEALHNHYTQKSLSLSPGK
light: SYELTQDPAVSVALGQTVRITCSGGSSDYYGWFQQKPGQAPVTVIYYNNKRPSDIPDRFSGSSSGNTASLTITGAQAEDEADYYCGNADSSVGVFGSGTKVTVLGQPKANPTVTLFPPSSEELQANKATLVCLISDFYPGAVTVAWKADGSPVKAGVETTKPSKQSNNKYAASSYLSLTPEQWKSHRSYSCQVTHEGSTVEKTVAPTECS
notes: humanized, IgG1 LALA, lambda; whole antibody
B10: 12892.15378 (antibody, human IgG1, lambda, L234A L235A)
heavy: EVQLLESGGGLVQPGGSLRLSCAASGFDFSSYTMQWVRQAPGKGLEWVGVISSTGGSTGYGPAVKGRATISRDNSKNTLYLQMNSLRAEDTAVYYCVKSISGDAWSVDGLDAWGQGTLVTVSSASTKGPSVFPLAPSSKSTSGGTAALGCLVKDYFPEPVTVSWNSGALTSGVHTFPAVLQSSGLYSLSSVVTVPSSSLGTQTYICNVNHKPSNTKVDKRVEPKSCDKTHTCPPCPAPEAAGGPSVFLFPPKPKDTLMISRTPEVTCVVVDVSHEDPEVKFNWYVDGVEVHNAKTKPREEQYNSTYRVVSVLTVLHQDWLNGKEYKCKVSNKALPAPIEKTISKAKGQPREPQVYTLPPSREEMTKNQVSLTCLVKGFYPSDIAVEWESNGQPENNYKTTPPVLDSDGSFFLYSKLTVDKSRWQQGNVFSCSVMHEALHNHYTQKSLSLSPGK
light: SYELTQDPAVSVALGQTVRITCSGGGSAYGWYQQKPGQAPVTVIYYNNQRPSGIPDRFSGSSSGNTASLTITGAQAEDEADYYCGSYDSSAVGIFGSGTKVTVLGQPKANPTVTLFPPSSEELQANKATLVCLISDFYPGAVTVAWKADGSPVKAGVETTKPSKQSNNKYAASSYLSLTPEQWKSHRSYSCQVTHEGSTVEKTVAPTECS
notes: humanized, IgG1 LALA, lambda
B11: 12796.15376 (antibody, human IgG1, lambda, L234A L235A, V domains shown)
VH: EVQLLESGGGLVQPGGSLRLSCAASGFDFSSYTMQWVRQAPGKGLEWVGVISSTGGSTGYGPAVKGRATISRDNSKNTLYLQMNSLRAEDTAVYYCVKSVSGDAWSVDGLDAWGQGTLVTVSS
VL: SYELTQDPAVSVALGQTVRITCSGGGSAYGWYQQKPGQAPVTVIYYNNQRPSDIPDRFSGSSSGNTASLTITGAQAEDEADYYCGSYDSSAVGIFGSGTKVTVLG
notes: humanized, IgG1 LALA, lambda
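Throughout, for % of all cells in Q1 of panel PD-L1 binding (PD-L1+, CFSE- human PD1 cells): human PD-1 CHO-S cells mixed with CFSE-labelled cyno PD-1 CHO-S cells, antibody binding read with APC anti-human IgG light chain detection.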
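Throughout, for % of all cells in Q4 of panel PD-L1 binding (PD-L1-, CFSE- human PD1 cells): human PD-1 CHO-S cells mixed with CFSE-labelled cyno PD-1 CHO-S cells, antibody binding read with APC anti-human IgG light chain detection.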
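Throughout, for % of human PD1-gated cells in Q1 (mAb+, PD-L1-): human PD-1 CHO-S cells mixed with CFSE-labelled cyno PD-1 CHO-S cells, antibody binding read with APC anti-human IgG light chain detection.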
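Throughout, for % of human PD1-gated cells in Q2 (mAb+, PD-L1+): human PD-1 CHO-S cells mixed with CFSE-labelled cyno PD-1 CHO-S cells, antibody binding read with APC anti-human IgG light chain detection.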

T5 sequence (Q15116 25-170): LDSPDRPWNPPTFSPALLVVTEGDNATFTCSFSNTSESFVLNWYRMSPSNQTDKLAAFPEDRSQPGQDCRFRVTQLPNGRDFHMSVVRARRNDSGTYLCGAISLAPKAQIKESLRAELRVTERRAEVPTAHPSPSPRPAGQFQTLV

The first experiment deals with T3, human PD-1 Fc fusion protein (Sino Biological) (human, UniProt Q15116 25-167, limits assumed).
T3 construct: bought; not shown: Fc of the commercial fusion protein
T3 sequence (Q15116 25-167 limits assumed): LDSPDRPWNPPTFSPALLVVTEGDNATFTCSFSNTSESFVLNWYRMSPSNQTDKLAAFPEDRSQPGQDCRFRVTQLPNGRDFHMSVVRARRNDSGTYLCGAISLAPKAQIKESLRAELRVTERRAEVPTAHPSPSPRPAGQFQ
The experiment in a line: BLI, PD-1-Fc saturated with 10 ug/ml antibody, then PD-L2-Fc.
For B1, the “% Blocking” value came out at 94%.
Still for that read-out and setting: the figure for B2 is 77%; for B3 it is 27%.

The target in another experiment is T4, human PD-1 expressed on CHO-S cells (human, UniProt Q15116 25-288).
T4 construct: also called PD-1-expressing cells
T4 sequence (Q15116 25-288 limits assumed): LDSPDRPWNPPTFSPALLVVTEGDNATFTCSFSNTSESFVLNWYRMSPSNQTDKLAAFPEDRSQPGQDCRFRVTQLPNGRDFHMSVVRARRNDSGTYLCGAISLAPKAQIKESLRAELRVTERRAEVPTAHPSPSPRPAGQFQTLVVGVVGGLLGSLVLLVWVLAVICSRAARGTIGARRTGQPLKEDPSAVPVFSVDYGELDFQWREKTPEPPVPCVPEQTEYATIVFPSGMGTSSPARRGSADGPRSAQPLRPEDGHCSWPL
The experiment in a line: flow cytometry competition, 10 ug/ml antibody vs R-PE PD-L1-Fc on PD-1 CHO-S cells.
Consider B1, for which the “% PD-L1 binding inhibition” value came out at 87%.
Same read-out and setting: under B2 stands 88%; under B3, 5%.

The target in another experiment is T4, human PD-1 expressed on CHO-S cells. The experiment in a line: flow cytometry, PD-1-transfected CHO-S cells; mAb 10 ug/ml, then R-PE PD-L1-Fc as blocked ligand.
As for B1, the “% of all cells in Q1 of panel PD-L1 binding (PD-L1+, CFSE- human PD1 cells)” value came out at 0.73%; the “% of all cells in Q4 of panel PD-L1 binding (PD-L1-, CFSE- human PD1 cells)” value turned out to be 47.6%; the “% of human PD1-gated cells in Q1 (mAb+, PD-L1-)” value stood at 58.8%; the “% of human PD1-gated cells in Q2 (mAb+, PD-L1+)” value is 5.85%. Besides, the “% of human PD1-gated cells in Q3 (mAb-, PD-L1+)” value worked out at 0.37% and the “% of human PD1-gated cells in Q4 (mAb-, PD-L1-)” value was 35%.
Turning to B2, the “% of all cells in Q1 of panel PD-L1 binding (PD-L1+, CFSE- human PD1 cells)” value was determined as 0.59%; the “% of all cells in Q4 of panel PD-L1 binding (PD-L1-, CFSE- human PD1 cells)” value was 43.8%; the “% of human PD1-gated cells in Q1 (mAb+, PD-L1-)” value is 56.1%; the “% of human PD1-gated cells in Q2 (mAb+, PD-L1+)” value stood at 5.3%. Moreover, the “% of human PD1-gated cells in Q3 (mAb-, PD-L1+)” value worked out at 0.45% and the “% of human PD1-gated cells in Q4 (mAb-, PD-L1-)” value came out at 38.2%.

A further experiment concerns the target T1, cyno PD1. Described as above.
As for B1, the “% of all cells in Q3 of panel PD-L1 binding (PD-L1-, CFSE+ cyno PD1 cells)” value is 51.1%; the “% of cyno PD1-gated cells in Q1 (mAb+, PD-L1-)” value came out at 47.8%; the “% of cyno PD1-gated cells in Q2 (mAb+, PD-L1+)” value was found to be 3.87%; the “% of cyno PD1-gated cells in Q3 (mAb-, PD-L1+)” value stood at 0.99%. The “% of cyno PD1-gated cells in Q4 (mAb-, PD-L1-)” value came out at 47.3%.
The corresponding values for B2 are 55.2%, 42.9%, 3.36%, 1.28% and 52.5%.

A further experiment addresses T2, His-tagged cynomolgus PD-1 ECD. The experiment in a line: SPR, IgG captured, monovalent PD-1 ECD analyte. Background: In SPR one partner is held on a chip, and binding of the other changes the refractive index at the surface.
The Kd is the free concentration of one partner at which half of the binding sites on the other are occupied at equilibrium, for simple one-to-one binding. A high value points to a looser complex. Broadly, the koff is a measure of how fast the partners let go of each other. The term kon denotes the rate constant with which the complex forms. High values mean fast association, low ones slow association. B4 registered a Kd of 6.94 nM, a koff of 0.0072 s⁻¹ and an on-rate (kon) of 1e+06 M⁻¹ s⁻¹.
The molecule B5 showed a dissociation constant (Kd) of 0.738 nM, a koff of 0.00038 s⁻¹ and a kon of 510000 M⁻¹ s⁻¹.
In the same order, the values of B6 are 0.101 nM, 0.00047 s⁻¹ and 4.6e+06 M⁻¹ s⁻¹.
In the same order, the values of B7 are 0.081 nM, 0.00039 s⁻¹ and 4.8e+06 M⁻¹ s⁻¹.
In the same order, the values of B8 are 0.681 nM, 0.00017 s⁻¹ and 250000 M⁻¹ s⁻¹.
For the molecule B9, the equilibrium dissociation constant (Kd) was determined as 0.452 nM, the dissociation rate constant (koff) turned out to be 0.0011 s⁻¹ and the kon was 2.5e+06 M⁻¹ s⁻¹.
Turning to B10, the Kd amounted to 2.34 nM, the off-rate constant (koff) turned out to be 0.00069 s⁻¹ and the kon came to 290000 M⁻¹ s⁻¹.
Consider B11, for which the dissociation constant Kd stood at 2.22 nM, the dissociation rate constant (koff) is 0.0007 s⁻¹ and the association rate constant (kon) worked out at 320000 M⁻¹ s⁻¹.

A further experiment addresses T5, His-tagged human PD-1 ECD (human, UniProt Q15116 25-170).
T5 construct: bought from Acro Biosystems; not shown: His tag
The experiment in a line: SPR, IgG captured, monovalent PD-1 ECD analyte.
The molecule B4 yielded a dissociation constant Kd of 0.112 nM, a koff of 0.00014 s⁻¹ and a kon of 1.2e+06 M⁻¹ s⁻¹.
In the same order, the values of B5 are 0.558 nM, 0.00023 s⁻¹ and 420000 M⁻¹ s⁻¹.
With B6, the Kd stood at 0.054 nM, the off-rate (koff) is 0.00017 s⁻¹ and the association rate constant (kon) came out at 3.2e+06 M⁻¹ s⁻¹.
In the same order, the values of B7 are 0.047 nM, 0.00016 s⁻¹ and 3.4e+06 M⁻¹ s⁻¹.
The corresponding values for B8 are 0.337 nM, 8e-05 s⁻¹ and 240000 M⁻¹ s⁻¹.
In turn, B9 registered an equilibrium dissociation constant (Kd) of 0.06 nM, a koff of 6.9e-05 s⁻¹ and a kon of 1.2e+06 M⁻¹ s⁻¹.
The corresponding values for B10 are 0.737 nM, 0.00034 s⁻¹ and 460000 M⁻¹ s⁻¹.
In the same order, the values of B11 are 0.542 nM, 0.00038 s⁻¹ and 710000 M⁻¹ s⁻¹.

For the next experiment, the target named is T3, human PD-1 Fc fusion protein (Sino …). The experiment can be described thus: BLI, PD-1-Fc saturated with 10 ug/ml antibody, then PD-L1-Fc. (In general: BLI is a label-free optical method that tracks binding on a fibre tip over time.)
For B1, the “% Blocking” value stood at 94%.
Regarding B2, the “% Blocking” value worked out at 88%.
The same measure, in the same setting: under B3 stands 53%.
